Measured values from patent US20230272055A1 (Incyte, published 2023).

Legend:
[1] = target: T1, Recombinant MBP-mutCALR Type 1 fusion protein (human); test: SPR, IgG captured, 1:1 fit, Exp. 1
T1 construct: custom made at Cepter; also called recombinant mutCALR protein
Procedure: Experiment 1: Recombinant MBP-mutCALR Type 1 fusion protein was custom made at Cepter (cepterbiopartners.com). Data for the interaction of antibodies with recombinant MBP-mutCALR Type 1 fusion protein were collected at 25° C. on a Biacore 8K instrument (Cytiva, Marlborough, Mass.), and all reagents were obtained from Cytiva unless otherwise specified. The experiments were conducted using Tris-buffered saline (pH 7.2), 0.005% Surfactant P20, 1 mM CaCl₂) as running buffer. To prepare the capture surfaces, anti-human IgG (Fc) antibodies (Product #29234600) was amine-coupled onto a CM4 chip (Product #BR100534) under standard conditions using an Amine Coupling Kit (Product #BR100050). […] The kinetics parameters were obtained by applying 1:1 binding model to fit the data from multiple-cycle injection experiments using Biacore Insight Evaluation software.

[2] = target: T1, Recombinant MBP-mutCALR Type 1 fusion …; test: SPR, IgG captured, 1:1 fit, Exp. 2
Outline: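 Antibodies captured via amine-coupled anti-human IgG (Fc) on a CM4 chip; recombinant MBP-mutCALR Type 1 fusion protein as analyte. Run at 25 °C in Tris-buffered saline pH 7.2, 0.005% P20, 1 mM CaCl₂. Multiple-cycle kinetics fitted to a 1:1 binding model.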

Binder	Kd [1]	koff [1]	kon [1]	Kd [2]	koff [2]	kon [2]
anti-mutCALR antibody clone 52 (antibody, human IgG1, kappa, V domains shown, human IgG1) VH: EVQLVQSGAEVKKPGASVKVSCKVSGYTLTELSMHWVRQAPGKGLEWMGLVDPEDGETIYAEKFQGRVTITADTSTDTAYMELSSPRSEDTAVYYCATTIGDDYFDYWGQGTLVTVSS VL: not shown	1.76 nM					
anti-mutCALR antibody clone 11 (antibody, human IgG1, lambda, V domains shown, human IgG1) VH: EVRLVQSGAEVKKPGASVKVSCKVSGYTLTELSMQWVRQAPGKGLEWMGGFDPDDGETMYAEKFQGRLTVTEDTSTDTVYMELRSLTSEDTALYFCATSPGYDFFDYWGQGTLVTVSS VL: QSALTQPRSVSGSPGQSVTISCTGTSSDVGGYNYVSWYQQHPGKAPKLMIYDVSKRPSGVPDRFSGSNSGNTATLTINRVEAGDEADYYCQVWDSSNDLLIFGGGTKLTVLG	10.2 nM	0.00524 s⁻¹	514000 M⁻¹ s⁻¹			
anti-mutCALR antibody clone 37 (antibody, human IgG1, lambda, V domains shown, human IgG1) VH: QVQLVQSGAEVKKPGATVKISCKVSGYSFTDYFIHWVQQAPGKGLAWVGLVDPEDGETIYAEKFQGRVTITADTSTDTAYMELSSLRSEDTAVYYCATPGGILTDPDAFDIWGQGTMVTVSS VL: QSALTQPASVSGSPGQSITISCTGTSSDVGGYNYVSWYQQHPGKAPKLMIYDVSNRPSGVSNRFSGSKSGNTASLTISGLQAEDEADYYCSSYTSSSTFYVFGTGTKVTVLG	9.88 nM	0.00212 s⁻¹	215000 M⁻¹ s⁻¹			
anti-mutCALR antibody clone 33 (antibody, human IgG1, lambda, V domains shown, human IgG1) VH: QVQLVQSGAEVKKPGATVKISCKVSGYSFTDYFIHWVQQAPGKGLAWVGLVDPEDGETIYAEKFQGRVTITADTSTDTAYMELSSLRSEDTAVYYCATPGGILTDPDAFDIWGQGTMVTVSS VL: QSALTQPRSVSGSPGQSVTISCAGTGSDVGGYNHVSWYQHHPGKAPKLMIYDVNKRPSGVPDRFSGSKSGNTASLTISGLQAEDEADYYCSSYIPSSTRWVFGGGTKLTVLG	16.2 nM	0.0126 s⁻¹	775000 M⁻¹ s⁻¹			
anti-mutCALR antibody clone 34 (antibody, human IgG1, lambda, V domains shown, human IgG1) VH: QVQLVQSGAEVKKPGATVKISCKVSGYSFTDYFIHWVQQAPGKGLAWVGLVDPEDGETIYAEKFQGRVTITADTSTDTAYMELSSLRSEDTAVYYCATPGGILTDPDAFDIWGQGTMVTVSS VL: QSALTQPASVSGSPGQSITISCTGTSSDVGGYNYVSWYQQHPGKAPKLMIYEVSNRPSGVSNRFSGSKSGNTASLTISGLQAEDEADYYCSSYTSSSTYVFGTGTKVTVLG	2.56 nM	0.00581 s⁻¹	2.27e+06 M⁻¹ s⁻¹			
anti-mutCALR antibody clone 35 (antibody, human IgG1, lambda, V domains shown, human IgG1) VH: QVQLVQSGAEVKKPGATVKISCKVSGYSFTDYFIHWVQQAPGKGLAWVGLVDPEDGETIYAERFQGRVTITADTSTDTAYMELSSLRSEDTAVYYCATPGGILTDPDAFDIWGQGTMVTVSS VL: QSALTQPASVSGSPGQSITISCTGTSSDVGGYNYVSWYQQHPGKAPKLMIYEVSNRPSGVSNRFSGSKSGNTASLTISGLQAEDEADYYCSSYTSSSTPYVFGTGTKVTVLG	2.82 nM	0.00599 s⁻¹	2.13e+06 M⁻¹ s⁻¹			
anti-mutCALR antibody clone 40 (antibody, human IgG1, lambda, V domains shown, human IgG1) VH: EVQLVQSGAEVKKPGASVKVSCKVSGYTLTESSMHWVRQAPGKGLEWMGLVDPEDGETIYAQKFQGRVTMTEDTSTDTAYMELSSLRSEDTAVYYCAREEWSGDGDDAFDIWGQGTMVTVSS VL: QSVLTQPPSVSAAPGQKVTISCSGSSSNIGSYSVSWYQQLPGTAPKLLIYDNNKRPSGIPDRFSGSNSGTSATLGITGLQTGDEADYYCGTWDSSLSAWVFGGGTKLTVLG	1.04 nM	0.00538 s⁻¹	5.17e+06 M⁻¹ s⁻¹	0.352 nM	0.00121 s⁻¹	3.44e+06 M⁻¹ s⁻¹
anti-mutCALR antibody clone 38 (antibody, human IgG1, kappa, V domains shown, human IgG1) VH: EVQPVQSGAEVKKPGSSVKVSCKASGGTFSSYAISWVRQAPGQGLEWMGLVDPEDGETIYAEKFRGRVTITADTSTDTAYMELSSLRSEDTAVYYCATEESYGPWGQGTLVTVSS VL: DIQLTQSPSSLSASVGDRVTITCQASQDISNYLNWYQQKPGKAPKLLIYDASNLETGVPSRFSGSGSGTEFTLTISSLQPEDFATYYCQQLNSYPLTFGGGTKLEIKR	2.1 nM	0.00268 s⁻¹	1.28e+06 M⁻¹ s⁻¹			
anti-mutCALR antibody clone 39 (antibody, human IgG1, kappa, V domains shown, human IgG1) VH: EVQLVQSGAEVKKPGSSVKVSCKASGGTFSSYAISWVRQAPGQGLEWMGLVDPEDGETIYAEKFQGRVTITADTSTDTAYMELSSLRSEDTAVYYCATEESYGPWGQGTLVTVSS VL: DIQLTQSPSSLSASVGDRVTITCQASQDISNYLDWYQQKPGKAPKLLIYDASNLETGVPSRFSGSGSGTEFTLTISSLQPEDFATYYCQQLNSYPLTFGGGTKLEIKR	5.59 nM	0.0018 s⁻¹	322000 M⁻¹ s⁻¹			
anti-mutCALR antibody clone 48 (antibody, human IgG1, lambda, V domains shown, human IgG1) VH: EVQLVQSGAEVKKPGSSVKVSCKASGGTFSSYAISWVRQAPGQGLEWMGGIIPIFGTANYAQKFQGRVTITADESTSTAYMELSSLRSEDTAVYYCASSPLRGSGWYWHYYYGMDVWGQGTTVTVSS VL: SYVLTQPPSVSVAPGKTARITCGGNNIGSKSVHWYQQKPGQAPVLVIYQDRKRPSGIPERFSGSNSGNTATLTISGTQAMDEADYYCQAWDSSTAVFGGGTKLTVLG	1.64 nM	0.000297 s⁻¹	181000 M⁻¹ s⁻¹			
anti-mutCALR antibody clone 49 (antibody, human IgG1, lambda, V domains shown, human IgG1) VH: EVQLVQSGAEVKKPGSSVKVSCKASGGTFSSYAISWVRQAPGQGLEWMGGIIPIFGTANYAQKFQGRVTITADESTSTAYMELSSLRSEDTAVYYCASSPLRGSGWYWHYYYGMDVWGQGTTVTVSS VL: SYELTQPPSVSVAPGKTARITCGGNNIRAKHVHWYQQKPGQSPVLVIYQDSKRPSGIPERFSGSNSGSTATLTISRVEAGDEADYYCQVWDSSTVVFGGGTKLTVLG	3.61 nM	0.000669 s⁻¹	185000 M⁻¹ s⁻¹			
anti-mutCALR antibody clone 44 (antibody, human IgG1, lambda, V domains shown, human IgG1) VH: EVQLVQSGAEVKKPGSSVKVSCKASGGTFSSYAISWVRQAPGQGLEWMGGIIPIFGTANYAQKFQGRVTITADESTSTAYMELSSLRSEDTAVYYCASSPLRGSGWYWHYYYGMDVWGQGTTVTVSS VL: SYVLTQPPSVSAAPGKTARISCGGNNIRSKSVHWYQQKAGQAPVLVIYQDSKRPSGIPERFSGSNSGNTATLTISGTQAMDEADYYCQAWDSNTVVFGGGTKLTVLG	3.84 nM	0.00101 s⁻¹	263000 M⁻¹ s⁻¹			
anti-mutCALR antibody clone 47 (antibody, human IgG1, lambda, V domains shown, human IgG1) VH: EVQLVQSGAEVKKPGSSVKVSCKASGGTFSSYAISWVRQAPGQGLEWMGGIIPIFGTANYAQKFQGRVTITADESTSTAYMELSSLRSEDTAVYYCASSPLRGSGWYWHYYYGMDVWGQGTTVTVSS VL: SYELTQPPSVSVAPGKTARITCGGNKIGTKSVHWYQQKPGQAPVLVIYRDSNRPSGIPERFSGSNSGNTATLTISRAQAGDEADYYCQVWDSSTVVFGGGTKLTVLG	3.62 nM	0.000772 s⁻¹	213000 M⁻¹ s⁻¹			
anti-mutCALR antibody clone 45 (antibody, human IgG1, lambda, V domains shown, human IgG1) VH: EVQLVQSGAEVKKPGSSVKVSCKASGGTFSSYAISWVRQAPGQGLEWMGGIIPIFGTANYAQKFQGRVTITADESTSTAYMELSSLRSEDTAVYYCASSPLRGSGWYWHYYYGMDVWGQGTTVTVSS VL: SYVLTQPLSVSVAPGQTARITCGGNNIGRKSVHWYQQKPGQAPVLVIYRDSNRPSGIPERFSGSNSGNTATLTISRAQAGDEADYYCQVWDSSTVVFGGGTKLTVLG	5.13 nM	0.0011 s⁻¹	214000 M⁻¹ s⁻¹			
anti-mutCALR antibody clone 51 (antibody, human IgG1, lambda, V domains shown, human IgG1) VH: EVQLVQSGAEVKKPGSSVKVSCKASGGTFSSYAISWVRQAPGQGLEWMGGIIPIFGTANYAQKFQGRVTITADESTSTAYMELSSLRSEDTAVYYCASSPLRGSGWYWHYYYGMDVWGQGTTVTVSS VL: SYELTQPPSVSVAPGKTARITCGGNKIGTKSVHWYQQKPGQAPVLVIYQDSKRPSGIPERFSGSNSGNTATLTISGTQAMDEADYYCQAWGSSTVVFGGGTKLTVLG	4.64 nM	0.00109 s⁻¹	235000 M⁻¹ s⁻¹	0.823 nM	0.000524 s⁻¹	636000 M⁻¹ s⁻¹
anti-mutCALR antibody clone 15 (antibody, human IgG1, lambda, human IgG1) heavy: not shown light: SYELTQPPSVSVAPGKTARITCGGDNIGSKSVHWYQQKPGQAPVLVVYDDSDRPSGIPERFSGSNSGNTATLTINRVEAGDEADYYCQVWDSSNDLLIFGGGTKLTVLGQPKAAPSVTLFPPSSEELQANKATLVCLISDFYPGAVTVAWKADSSPVKAGVETTTPSKQSNNKYAASSYLSLTPEQWKSHRSYSCQVTHEGSTVEKTVAPTECS	6.03 nM	0.215 s⁻¹	3.57e+07 M⁻¹ s⁻¹	1.02 nM	0.00249 s⁻¹	2.44e+06 M⁻¹ s⁻¹
anti-mutCALR antibody clone 17 (antibody, human IgG1, lambda, human IgG1) heavy: not shown light: SYVLTQPPSVSVAPGQTARITCGGSDIGDEIVHWYQQKPGQAPVLVVYDDSDRPSGIPERFSGSNSGNTATLTISRAQAGDEADYYCQVWDSSSDHLIFGGGTKLTVLGQPKAAPSVTLFPPSSEELQANKATLVCLISDFYPGAVTVAWKADSSPVKAGVETTTPSKQSNNKYAASSYLSLTPEQWKSHRSYSCQVTHEGSTVEKTVAPTECS	2.22 nM	0.00347 s⁻¹	1.56e+06 M⁻¹ s⁻¹	0.249 nM	0.00127 s⁻¹	5.12e+06 M⁻¹ s⁻¹
anti-mutCALR antibody clone 30 (antibody, human IgG1, lambda, V domains shown, human IgG1) VH: EVQLVQSGAEVKKPGASVKVSCKVSGYTLTELSMQWVRQAPGKGLEWMGGFDPDDGETMYAEKFQGRLTVTEDTSTDTVYMELRSLTSEDTALYFCATSPGYDFFDYWGQGTLVTVSS VL: SYVLTQPPSVSVAPGKTATITCGGNNIGTKSVHWYQQKPGQAPVLVVYDDSDRPSGIPERFSGSNSGNTATLTINRVEAGDEADYYCQVWDSSNDLLIFGGGTKLTVLG	12.8 nM	0.00295 s⁻¹	231000 M⁻¹ s⁻¹			
